For assay [1], the target named is soluble DR4 (sDR4) recombinant protein (human). Briefly: ELISA. On the technique in general: ELISA stands for enzyme-linked immunosorbent assay.
Assay [2] concerns the target “empty” DQ6 (DQA1*01:02/DQB1*06:02) with leucine zippers displayed on yeast as a noncovalent αβ heterodimer (human). Briefly: flow cytometry on cells. Background: A flow cytometer gives signals particle by particle.
In assay [3] the target is soluble DQ6 (sDQ6) recombinant protein, CLIP87–101 linker cleaved by thrombin (human). Briefly: ELISA.
Assay [4] shares this target. Briefly: ELISA. The source holds these as a separate data set.
Assay [5] concerns the target “empty” DQ6 (DQA1*01:02/DQB1*06:02) with leucine zippers displayed on yeast as a noncovalent αβ heterodimer (human). Briefly: flow cytometry on cells. The source holds these as a separate data set.

Read-outs that look alike come from different tables or passages of the source. Ends that are not written are not given here.

For HA306–318 peptide, nonbiotinylated, in assay [1], the %Competition at [competitor]:[indicator] = 10 turned out to be 75%.
Molecule “HCRT1–15 peptide (from UniProt O43612 1-15)” registered a %Competition in assay [2] above 50%.
On the same count and under the same terms, under “HCRT21–35 peptide (from UniProt O43612 21-35)” stands above 50%; under “HCRT25–39 peptide (from UniProt O43612 25-39)”, above 50%.
Still for that read-out and setting: under “HCRT53–67 peptide (from UniProt O43612 53-67)” stands above 50%.
Same read-out and setting: in the case of “HCRT57–71 peptide (from UniProt O43612 57-71)” it was above 50%; in that of “HCRT81–95 peptide (from UniProt O43612 81-95)”, above 50%.
Take “HCRT85–99 peptide (from UniProt O43612 85-99)”: the %Competition in assay [2] is above 50%.
Regarding “HCRT89–103 peptide (from UniProt O43612 89-103)”, the %Competition at [competitor]:[indicator] = 100 in assay [3] was above 75%. Further, in assay [2], the %Competition was above 75% and the %Competition at [competitor]:[indicator] = 10 was above 75%.
Take “SARS-CoV-2 spike peptide S652–668 (from UniProt P0DTC2 652-668)”: in assay [1], the %Competition at [competitor]:[indicator] = 100 is below 50%.
Take “SARS-CoV-2 spike peptide S1058–1074 (from UniProt P0DTC2 1058-1074)”: in assay [1], the fold weaker BA than HA306–318 (IC50 normalised to HA306–318) stood at 20 fold.
In general, IC50 refers to the point on the concentration scale where inhibition reaches its midpoint. A low value points to higher potency. With MNLPSTKVSWAAV (not fully specified) [HCRT1–13 peptide, nonbiotinylated], the %Competition at [competitor]:[indicator] = 10 in assay [4] turned out to be 75%. In assay [5], this molecule returned a %Competition at [competitor]:[indicator] = 10 of 75% and an IC50 of 30 µM.

Source of the values: paper PMC8193015.
